Laboratory results taken from article doi:10.1101/407197.
Read-outs that look alike come from different tables or passages of the source.

Key:
MIWI [1] = molecular target: T1, MIWI (mouse, UniProt Q9JMB7 1-862); test: EMSA
MIWI [2] = molecular target: T1, MIWI; test: EMSA; remark: listed apart in the source

T1 sequence (Q9JMB7 whole entry): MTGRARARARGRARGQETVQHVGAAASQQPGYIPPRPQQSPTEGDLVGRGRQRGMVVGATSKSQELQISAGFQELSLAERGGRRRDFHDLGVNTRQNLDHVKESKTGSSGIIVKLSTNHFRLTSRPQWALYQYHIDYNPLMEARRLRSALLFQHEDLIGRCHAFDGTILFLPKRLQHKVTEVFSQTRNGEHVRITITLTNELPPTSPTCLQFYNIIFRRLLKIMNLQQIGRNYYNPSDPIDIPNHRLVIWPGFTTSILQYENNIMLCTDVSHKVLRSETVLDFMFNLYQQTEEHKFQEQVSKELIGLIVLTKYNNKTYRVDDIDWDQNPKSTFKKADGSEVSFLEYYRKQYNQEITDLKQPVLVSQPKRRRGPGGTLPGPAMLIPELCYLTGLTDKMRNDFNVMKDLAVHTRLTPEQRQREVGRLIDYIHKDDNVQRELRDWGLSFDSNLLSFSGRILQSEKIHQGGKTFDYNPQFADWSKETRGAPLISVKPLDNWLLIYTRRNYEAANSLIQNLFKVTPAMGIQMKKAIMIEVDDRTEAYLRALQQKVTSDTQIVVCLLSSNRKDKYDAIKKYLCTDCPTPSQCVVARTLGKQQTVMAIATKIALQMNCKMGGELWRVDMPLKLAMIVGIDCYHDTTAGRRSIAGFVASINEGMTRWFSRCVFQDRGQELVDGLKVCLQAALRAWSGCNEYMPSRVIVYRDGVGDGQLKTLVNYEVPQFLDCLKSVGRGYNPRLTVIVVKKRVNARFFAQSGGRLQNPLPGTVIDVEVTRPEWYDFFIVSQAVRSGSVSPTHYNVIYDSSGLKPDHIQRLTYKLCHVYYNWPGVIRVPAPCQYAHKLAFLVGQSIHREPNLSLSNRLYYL

| Binder | binding result (MIWI [1]) | binding result (MIWI [2]) |
| --- | --- | --- |
| UGACAUGAACACAGGUGCUCAGAUAGCUUU (ssRNA) [piR1] | binds | – |
| CCUCAUGAAGAAGAGGAGGAGGA (ssRNA) [Ssty RNA oligonucleotide (putative piRNA)] | – | binds |
| CAGUUAAAGAAAUGCAUGAGAA (ssRNA) [Sly RNA oligonucleotide (putative piRNA)] | – | binds |
